Our source for the EC50 values is patent US20260116937A1.

pEC50: −log10 of the molar value.

Assay [1] deals with C3b (human) (UniProt P01024). The experiment in a line: ELISA. On the technique in general: An ELISA detects its analyte on a solid surface through an enzyme-linked reagent.
For assay [2], the target named is C3b (human) (UniProt P01024). The experiment in a line: ELISA; culture supernatant.

Chain of C3b (human) (P01024 749-1663, chain 1 of 2): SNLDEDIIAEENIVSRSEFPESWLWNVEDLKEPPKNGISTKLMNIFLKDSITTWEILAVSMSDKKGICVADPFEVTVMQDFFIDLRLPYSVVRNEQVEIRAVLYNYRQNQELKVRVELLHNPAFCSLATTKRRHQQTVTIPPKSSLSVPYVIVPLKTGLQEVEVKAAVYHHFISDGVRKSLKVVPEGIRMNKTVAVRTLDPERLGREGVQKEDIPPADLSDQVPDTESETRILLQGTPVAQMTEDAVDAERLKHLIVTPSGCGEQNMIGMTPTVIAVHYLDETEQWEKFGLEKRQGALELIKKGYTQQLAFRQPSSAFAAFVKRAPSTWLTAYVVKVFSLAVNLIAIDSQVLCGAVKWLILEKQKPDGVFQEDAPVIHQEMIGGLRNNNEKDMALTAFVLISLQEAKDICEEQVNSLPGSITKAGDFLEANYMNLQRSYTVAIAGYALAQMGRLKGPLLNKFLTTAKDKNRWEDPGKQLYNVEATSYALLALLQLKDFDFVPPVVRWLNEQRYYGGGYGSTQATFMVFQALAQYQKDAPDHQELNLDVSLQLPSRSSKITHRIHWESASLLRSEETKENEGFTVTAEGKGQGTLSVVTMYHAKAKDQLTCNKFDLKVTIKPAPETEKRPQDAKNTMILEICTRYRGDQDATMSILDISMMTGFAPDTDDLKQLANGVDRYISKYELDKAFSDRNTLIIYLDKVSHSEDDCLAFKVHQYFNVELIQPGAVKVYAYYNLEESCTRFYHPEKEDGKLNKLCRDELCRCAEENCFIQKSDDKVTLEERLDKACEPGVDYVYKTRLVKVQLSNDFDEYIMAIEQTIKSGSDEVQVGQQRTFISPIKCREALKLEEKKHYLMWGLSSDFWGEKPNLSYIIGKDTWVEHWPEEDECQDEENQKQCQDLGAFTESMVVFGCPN
Chain of C3b (human) (P01024 23-667, chain 2 of 2): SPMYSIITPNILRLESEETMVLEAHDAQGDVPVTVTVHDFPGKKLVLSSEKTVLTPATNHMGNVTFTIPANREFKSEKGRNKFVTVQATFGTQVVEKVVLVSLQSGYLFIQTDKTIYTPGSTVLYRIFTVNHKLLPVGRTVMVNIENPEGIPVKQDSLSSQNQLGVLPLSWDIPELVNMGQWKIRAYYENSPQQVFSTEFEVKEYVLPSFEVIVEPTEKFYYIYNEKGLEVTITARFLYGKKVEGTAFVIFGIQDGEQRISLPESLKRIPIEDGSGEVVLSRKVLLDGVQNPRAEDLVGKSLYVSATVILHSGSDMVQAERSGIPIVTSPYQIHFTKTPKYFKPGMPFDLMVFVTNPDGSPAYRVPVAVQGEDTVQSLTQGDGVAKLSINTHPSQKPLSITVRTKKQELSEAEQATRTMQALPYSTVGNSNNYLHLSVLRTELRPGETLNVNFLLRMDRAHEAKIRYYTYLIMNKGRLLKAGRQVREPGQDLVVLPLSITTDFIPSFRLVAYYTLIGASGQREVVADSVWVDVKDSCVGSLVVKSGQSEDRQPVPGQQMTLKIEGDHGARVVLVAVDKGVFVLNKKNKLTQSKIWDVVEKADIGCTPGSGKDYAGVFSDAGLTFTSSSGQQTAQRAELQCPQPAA

As a reminder, the pEC50 is −log10 of the EC50, conventionally taken in molar units. A lower pEC50 goes with a high EC50. With “Factor H-like protein 1 (FHL-1) (from UniProt P08603 19-445)”, the pEC50 was 8.15 in the assay with C3b (human) [1] and 8.16 with C3b (human) [2].
